Measurements: the nanobody polyreactivity screen of Harvey et al. (2022)

Experiment: yeast display, Sf9 membrane polyspecificity reagent, FACS + sequencing; frameworks hold sequencing errors
How it was run: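 In a synthetic yeast display library (Saccharomyces cerevisiae BJ5465), nanobody expression was induced with galactose for 36–48 hours. FACS gates were set low and high (top ~1%) using anti-HA fluorescence for expression and streptavidin fluorescence for binding of the Sf9 membrane reagent. Each polyreactivity label is drawn from the gate of origin.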

Sequence	polyreactivity (PSR sort gate)
QVQLVESGGGLVQAGGSLRLSCAASGSTFPKYAMGWYRQAPGKERELVASISVTTGSTYYADSVKGRFTISRDNAKNTVYLQMNSLKPEDTAVYYCAKRTYSRKFRGAYNYWGQGTQVTVSS	high polyreactivity
QVQLVESGGGLVQAGGSLRLSCAASGSTFPKYAMGWYRQAPGKERELVASISVTTGSTYYADSVKGRFTISRDNAKNTVYLQMNSLNPEDTAVYYCAKRTYSRKFRGAYNYWGQGTQVTVSS	high polyreactivity
QVQLVESGGGLVQAGGSLRLSCAASGSTFPLYAMGWYRQAPGKERDLVAAITSGGGNTYYADSVKGRFTISRDNAKITVYLQMNSLKPEDTAVYSCAAVGGYKSYYSYEYDYWGQGTQVTVSS	low polyreactivity
QVQLVESGGGLVQAGGSLRLSCAASGSTFPLYAMGWYRQAPGKERELVAAITSGGGNTYYADSVKGRFTISRDNAKNTVYLQMNRLKPEDTAVYYCAAVGGYKSYYSYEYDYWGQGTQVTVSS	low polyreactivity
QVQLVESGGGLVQAGGSLRLSCAASGSTFPLYVMGWYRQSPGKERELVAAIDWSGGSTYYADSVKGRFTISRDNAKNTVFLQMNSLKPVDTAVYYCNRKRYGYDYEYWGQGTQVTVSS	low polyreactivity
QVQLVESGGGLVQAGGSLRLSCAASGSTFPPNAMGWYRQAPGKERELVAVISYTSGRTYYADSVKGRFTISRDNAKNTVYLQMNSLKPEDTAVYYCNKRVLYRQRGFNYWGQGTQVTVSS	high polyreactivity
QVQLVESGGGLVQAGGSLRLSCAASGSTFPPYAMGWYRQAPGKERELVAAIDWSDGTTYYADSVKGRFTISRDNAKNTVYLQMNSLKPEDTAVSYCSASLSQSEFDYWGQGTQVTVSS	low polyreactivity
QVQLVESGGGLVQAGGSLRLSCAASGSTFPQYAMGWSRQAPGKERELVAAISWSGGRTYYADSVKGRFTISRDNAKNTVYLQMNSLKPEDTAVYYCAATYPGQYGYNYWGQGTQVTVSS	high polyreactivity
QVQLVESGGGLVQAGGSLRLSCAASGSTFPSNAMGGYRQAPGKARELDAAISDSGSTTYYADSVKGRFTISRDNAKNTVYLQMNSLKPEDTAVYYCNADWWQYDFVFWTFGYDDWGQGTQVTLSS	low polyreactivity
QVQLVESGGGLVQAGGSLRLSCAASGSTFPSYAMGWYRQAPGKERELVAAINSGGGTNYADSVKGRFTISRDNAKNTVYFQMNSLKPEDTAVYYCAKSRDDYTNTEGGYWGQGTQVTVSS	low polyreactivity
QVQLVESGGGLVQAGGSLRLSCAASGSTFPTYAMGWSRQAPGKERELVAAIDWSDGSITYYADSVKGRFTISRDNAKNTVFLQLNSLKPEDTAVYYCAKDYSQYGWRYDYWGQGTQVTVSS	low polyreactivity
QVQLVESGGGLVQAGGSLRLSCAASGSTFPTYAMGWYRQAPGKERELVADITWSGGSTYYADSVKGRFTISRDNAKNTVYLQMNSLKPEDTAVYYCAAVFKAGSAYDYWGQGTQVTVSS	high polyreactivity
QVQLVESGGGLVQAGGSLRLSCAASGSTFPVNTMGWYRQAPGKERELVAAITKNGANTYYADSVKGRFTLSRDNAKNTVFLQMNSLKPEDTAVYYCAARYVYGKSYSRWLVELDYWGQATQVTVSS	low polyreactivity
QVQLVESGGGLVQAGGSLRLSCAASGSTFPVYAMGGYRQAPGKERELVAAISLIGGSTYYADSVKGRFTISRDTAKNTVYLQMNSLKPEDTAVYYCNTAVISSPPAIDVLEMDYWGQGTQVTVSS	low polyreactivity
QVQLVESGGGLVQAGGSLRLSCAASGSTFPVYAMGWYRQAPGKERELFAAISRAGSTNYADSVKGRFTISRDNAKNTVYLQMNSLKPEDTAVYYCAARGYLWAGEWYVRRDYWGQGTQVTVSS	high polyreactivity
QVQLVESGGGLVQAGGSLRLSCAASGSTFPVYAMGWYRQAPGKERELVAAISRAGSTNYADSVKGRFTISRDNAKNSVYLQMNSLKPEDTAVYYCAARGYLWAGEWYVRRDDWGQGTQVTVSS	high polyreactivity
QVQLVESGGGLVQAGGSLRLSCAASGSTFPWYVMGGYRQAPGKERELVAAISLSGGRTYYADSVMGRFTISRDNAKNRVYLQMNSLKPEDTAVYYCAAEFKLVSHTYYYWGQGTQVTVSS	low polyreactivity
QVQLVESGGGLVQAGGSLRLSCAASGSTFPYNAMGWYRPAPGKERELVAAITAGGARTYYADSVKGRFTISRDNAKNTVYLQMNSLKPEDTAVYYCNKVKATSYRYYYWGQGTQVTVSS	high polyreactivity
QVQLVESGGGLVQAGGSLRLSCAASGSTFPYNAMGWYRQAPGKERELVAAITSSGRTNYADSVKGRFTISRDNANNTVYLQMNSLKPEDTAVYYCAAARWYAHRVDYWGQGTQVTVSS	low polyreactivity
QVQLVESGGGLVQAGGSLRLSCAASGSTFPYNAMGWYRQAPGKERELVADISGDSGSTYYADSVKGRFTISRDNAKNTVYLQMNSLKPEDTAVYYCAGEGVHYAGDYGTGYDYWGQGTQVTVSS	low polyreactivity

Sequence	polyreactivity (PSR sort gate)
QVQLVESGGGLVQAGGSLRLSCAASGSTFPYNAMGWYRQAPGQERELVAAITRGGRTYYADSLKGRFTISRDNSKNTVYLQMISLKPEDTAVYYCAAYYSGYSKKFDYWGQGTQVTVSS	high polyreactivity
QVQLVESGGGLVQAGGSLRLSCAASGSTFPYNTMGWYRQAHGKEREFVAAITGDGGTTYYADSVKGRFTISRDNAKNTVYLQMNSLKPEDTAVYYCAVPYPAEGYGGDYWGQGTQGTVSS	low polyreactivity
QVQLVESGGGLVQAGGSLRLSCAASGSTFPYVMGWYRQAPGKERELVAAISQSTGGITNYADSVKGRFTISRDNAKNTVYLQMNSLKPEDTAVYYCAATSWRYQQSTRYKGRRYYSWGQGSQVTVSS	high polyreactivity
QVQLVESGGGLVQAGGSLRLSCAASGSTFPYYAMGWYRLAPGKERELVAAISFRGTRTYYADSVKGRFTISRDNAKNTVYLQMNSLKPEDTAVYYCAADASTYYGTQWASYYYWGQGTQVTVSS	high polyreactivity
QVQLVESGGGLVQAGGSLRLSCAASGSTFPYYAMGWYRQAPGKERELVAAISRRGTSTYYADSVKGRFTISRDNAKNTVYLQMNSLTPEDTAVYYCAAVGGAFPNRYYWGQGTQVTVSS	high polyreactivity
QVQLVESGGGLVQAGGSLRLSCAASGSTFPYYAMGWYRQAPGKERELVAAITSGGSTNYADSVKGRFTISRDNAKNTVYLQMNSLKPEDTAVYYCAADFALPNALPEYDYGAFDYNYWGQGTQVTVSS	low polyreactivity
QVQLVESGGGLVQAGGSLRLSCAASGSTFPYYGLGWYRQAPGKERELVAVISRRGTGTYYADSVKGRFTISRDNAKNTVYLQMNSLKPEDTAVYYCATAGYFIYWGQGTQVTVSS	low polyreactivity
QVQLVESGGGLVQAGGSLRLSCAASGSTFPYYTMGWYRQAPGKERELVAAICGRGTSTYYADSVKGRFTISRDNAKNTVYLQMISLKPEDTAVYYCAARRADVQPYSPVYAYGAYDYWGQGTQVTVSS	high polyreactivity
QVQLVESGGGLVQAGGSLRLSCAASGSTFPYYTMGWYRQAPGKERELVAAITWRGGRTYYADSVKGRFTISRDNAKNTVYLQMNSLKPEDTAVYYCAVYRRWYSGLYDYWGQGTQVTVSS	high polyreactivity
QVQLVESGGGLVQAGGSLRLSCAASGSTFPYYVMGWYRQAPGKERELVAAIDESGDRTYYADSVKGRFTISRDNAKNTVYLQMNSLKPEDTAVYYCAAEGWYEYWYDYWGQGTQVTVSS	high polyreactivity
QVQLVESGGGLVQAGGSLRLSCAASGSTFPYYVMGWYRQAPGKERELVAAISGSGTRTYYADSVKGRFTISRDNAKNTVYLQMNSLKPEDTAVYYCAARKYPQGFDYWGQGTQVTVSS	low polyreactivity
QVQLVESGGGLVQAGGSLRLSCAASGSTFPYYVMGWYRQAPGKERELVATITNSGGSTYYADSVKGRFTISRDNAKNTVYLQMNSLKPEDTAVYYCAAVYWYGLYHRYYYWGQGTQVTVSS	low polyreactivity
QVQLVESGGGLVQAGGSLRLSCAASGSTFQFNTMGWYRQAPGKERELDAAITYSGGSTYYADSVKGRFTISRDNAKNTVYLQMNSQKPEDTAVYYCAADIITYDYPSYDGYIRYPYYYWGQGTQVTVTS	low polyreactivity
QVQLVESGGGLVQAGGSLRLSCAASGSTFQFNVMGWYRQAPGKERELVAAITSGASTYYADSVKGRFTISRDNAKNTVYLQMNSLEPVDTAVYYWAVDYSFRYDYVQRYYYWGQGTQVTVSS	high polyreactivity
QVQLVESGGGLVQAGGSLRLSCAASGSTFQFYAMGWYRQAPGKEREFVAGIRSSGGTYYADSVKGRFTISRDNAKNTVYLQMNSLKPEDTAVYYCAAVSSYSPYRRTYYYWGQGTQVTVSS	high polyreactivity
QVQLVESGGGLVQAGGSLRLSCAASGSTFQFYAMGWYRQAPGKERELVAAIDGSDGDTYYADSVKGRFTISRDNAKNTVYLQMNSLKPEDTAVYYCNADRDALVGYDYDYWGQGTQVTVSS	low polyreactivity
QVQLVESGGGLVQAGGSLRLSCAASGSTFQGNAMGWYRHAPGKERELVAAISRSGGSTYADSVKGRFTISRDNAKNTVYLQINSLKPEDTAVYYCAAYSGVGYLWFDYWGQGTQVTVSS	low polyreactivity
QVQLVESGGGLVQAGGSLRLSCAASGSTFQGNAMGWYRQAPGKERELVAAISRSGGSTYADSVKGRFTMSRDNAKNTVYLQMNSLKPEDTAVYYCAAYSGVGYLWFDYWGQGTQVTVSS	low polyreactivity
QVQLVESGGGLVQAGGSLRLSCAASGSTFQGYALRWYRQAPGKERELVAAITKRSGRTYYADSVKGRFTISRDNAKNTVYLQMNSLKPEDTAVYYCAKVTSYSEYDYWGQGTQVTVSS	high polyreactivity
QVQLVESGGGLVQAGGSLRLSCAASGSTFQINAMGWYRQAPGKERELVARNSGSGSRTYYADSVKGRFTISRYNAKNTVSLQMNSLKPEDTAVYYCAARGTGKGYDSWGQGTQVTVSS	high polyreactivity
